Target: IGHV3-21/IGLV3-21^G110 BCR on murine TKO cells (human) (UniProt P01871)
Assay: flow cytometry dot plot, cell mix B (1:1 IGHV3-21/IGLV3-21^G110 BCR TKO cells and BCR-negative TKO cells), 5 µg/ml mAb01-01-APC and 2 µg/ml anti-human IgM-PE

Chain of IGHV3-21/IGLV3-21^G110 BCR on murine TKO cells (human) (P01871 other isoform, or with tags, fused parts or gaps, chain 1 of 2): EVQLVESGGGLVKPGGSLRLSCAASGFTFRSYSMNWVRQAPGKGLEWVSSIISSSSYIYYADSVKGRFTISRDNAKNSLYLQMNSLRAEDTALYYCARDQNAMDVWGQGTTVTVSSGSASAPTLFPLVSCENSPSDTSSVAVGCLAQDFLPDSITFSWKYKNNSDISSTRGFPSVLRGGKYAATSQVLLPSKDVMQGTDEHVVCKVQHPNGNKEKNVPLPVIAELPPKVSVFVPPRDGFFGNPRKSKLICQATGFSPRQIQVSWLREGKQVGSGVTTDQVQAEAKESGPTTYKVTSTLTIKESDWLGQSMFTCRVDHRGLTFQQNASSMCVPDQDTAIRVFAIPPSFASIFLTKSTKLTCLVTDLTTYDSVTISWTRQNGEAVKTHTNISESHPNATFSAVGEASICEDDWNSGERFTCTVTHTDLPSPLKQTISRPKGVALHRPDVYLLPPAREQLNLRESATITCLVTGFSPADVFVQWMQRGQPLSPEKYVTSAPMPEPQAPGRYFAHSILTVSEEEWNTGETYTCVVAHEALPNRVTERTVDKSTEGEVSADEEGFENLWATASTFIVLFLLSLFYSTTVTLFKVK
Chain of IGHV3-21/IGLV3-21^G110 BCR on murine TKO cells (human) (light, as listed by the source, chain 2 of 2): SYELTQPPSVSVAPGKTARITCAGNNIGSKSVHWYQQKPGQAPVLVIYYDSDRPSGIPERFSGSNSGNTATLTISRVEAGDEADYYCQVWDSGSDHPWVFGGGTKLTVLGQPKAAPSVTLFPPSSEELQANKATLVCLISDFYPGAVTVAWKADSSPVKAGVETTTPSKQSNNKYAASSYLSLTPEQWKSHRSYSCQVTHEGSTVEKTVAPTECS

B1: mAb01-01 (antibody, mouse IgG1, kappa, V domains shown)
VH: QVQLQQSGPGLVQPSQSLSITCTVSGFSLTSYGIHWVRQSPGKGLEWLGVIWRGGGTDSNAAFMSRLSITKDNSKSQVFFKMNSLQADDTAIYYCARSRYDEEESMNYWGQGTSVTVSS
VL: QIVLTQSPASLSASVGETVTITCRASGNIHSYLAWYQQKQGKSPQLLVYNAKTLADGVPSRFSGSGSGTQYSLKINSLQPEDFGSYYCQHFWNTPPTFGAGTKLELKR
share of gated cells (P1) in quadrant Q1 (anti-IgM-PE positive, mAb01-01-APC negative): 42.2%
share of gated cells (P1) in quadrant Q2 (anti-IgM-PE positive, mAb01-01-APC positive): 1.11%

Source: patent US20230272073A1
